Laboratory results as given in patent US20250346644A1 (LATTICON SUZHOU BIOPHARMACEUTICALS, published 2025).
Where a chain is given by its changes, count along the chain named. Names may count otherwise.

T1: hIL2Rβ (hCD122) (human, UniProt P14784 27-239, limits assumed)
T1 construct: bought recombinant protein; also called hCD122 (Acro)
T1 sequence (looked up): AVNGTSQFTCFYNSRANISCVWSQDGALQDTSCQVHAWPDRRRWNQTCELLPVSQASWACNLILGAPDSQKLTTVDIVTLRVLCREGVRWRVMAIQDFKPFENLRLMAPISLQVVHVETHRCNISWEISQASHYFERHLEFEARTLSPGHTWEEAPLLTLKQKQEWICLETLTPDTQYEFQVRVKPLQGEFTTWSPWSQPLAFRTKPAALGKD

B1: IC-Cy08-DE (other)
heavy: APTSSSTKKTQLQLEHLLLDLQMILNGINNYKNPKLTRMLTFKFYMPKKATELKHLQCLEEELGCLEEVLNLAQSKNFHLRPRDLISNIRVIVLELKGSETTFMCEYADETATIVEFLNRWITFCQSIISTLTGGGGSGGGGSGGGGSGGGGSQVQLVQSGAEVKKPGATVKISCKVSGDTITAYYMHWVRQAPGQGLEWIGRIDPEDDSTKYAENFKGRVTITADTSTDTAYMELSSLRSEDTAVYYCTTVTCYYSRELRWFAYWGQGTLVTVSS
VL: EIVLTQSPATLSLSPGERATLSCQASQDIGNYLSWYQQKPGQAPRLLIYSATSLASGIPARFSGSRSGTDFTLTISSLEPEDFAVYYCLQHYSTPYTFGQGTKLEIK
notes: IC-Cy08 with light chain D1E; also called H6K3(H)-Cy-08-DE
B2: IC-Cy08-QE (other)
heavy: B1 heavy
VL: B1 VL with E1D, Q27E
notes: IC-Cy08 with light chain Q27E; also called H6K3(H)-Cy-08-QE
B3: IC-Cy08-QG (other)
heavy: B1 heavy
VL: B1 VL with E1D, Q27G
notes: IC-Cy08 with light chain Q27G; also called H6K3(H)-Cy-08-QG
B4: IC-Cy08-QR (other)
heavy: B1 heavy
VL: B1 VL with E1D, Q27R
notes: IC-Cy08 with light chain Q27R; also called H6K3(H)-Cy-08-QR
B5: IC-Cy08-QS (other)
heavy: B1 heavy
VL: B1 VL with E1D, Q27S
notes: IC-Cy08 with light chain Q27S; also called H6K3(H)-Cy-08-QS
B6: IC-Cy08-QK (other)
heavy: B1 heavy
VL: B1 VL with E1D, Q27K
notes: IC-Cy08 with light chain Q27K; also called H6K3(H)-Cy-08-QK; C-Cy8-QK
B7: IC-Cy08-QD (other)
heavy: B1 heavy
VL: B1 VL with E1D, Q27D
notes: IC-Cy08 with light chain Q27D; also called H6K3(H)-Cy-08-QD
B8: K4G3 (antibody, V domains shown)
VH: QVQLVQSGAEVKKPGATVKISCKVSGDTITAYYMHWVRQAPGQGLEWIGRIDPDDDSTKYAENFKGRVTITADTSTDTAYMELSSLRSEDTAVYYCTTVTFYYSRELRWFAYWGQGTLVTVSS
VL: B1 VL with E1D, D28Y
B9: K3G10 (antibody, V domains shown)
VH: B8 VH with V99I, S104T
VL: B1 VL with E1D, D28Y, S50Q
B10: K4G7 (antibody, V domains shown)
VH: B8 VH with D54E, V99I, S104T
VL: B1 VL with E1D, D28Y
B11: K4G2 (antibody, V domains shown)
VH: B8 VH with D54E, V99I
VL: B1 VL with E1D, D28Y
B12: K4G8 (antibody, V domains shown)
VH: B8 VH with D54E, V99I, Y102L
VL: B1 VL with E1D, D28Y
B13: K3G9 (antibody, V domains shown)
VH: B8 VH with D54E, V99I, Y102L, S104T
VL: B1 VL with E1D, D28Y, S50Q
B14: K4G6 (antibody, V domains shown)
VH: B8 VH with V99I
VL: B1 VL with E1D, D28Y
B15: K3G8 (antibody, V domains shown)
VH: B8 VH with D54E, V99I, Y102L
VL: B1 VL with E1D, D28Y, S50Q
B16: K4G5 (antibody, V domains shown)
VH: B8 VH with D54E, S104T
VL: B1 VL with E1D, D28Y
B17: K4G10 (antibody, V domains shown)
VH: B8 VH with V99I, S104T
VL: B1 VL with E1D, D28Y
B18: K4G4 (antibody, V domains shown)
VH: B8 VH with D54E, Y102L
VL: B1 VL with E1D, D28Y
B19: K4G1 (antibody, V domains shown)
VH: B8 VH with D54E
VL: B1 VL with E1D, D28Y
B20: K4G12 (antibody, V domains shown)
VH: B8 VH with V99I, Y102L, S104T
VL: B1 VL with E1D, D28Y
B21: hS4B6-H6K3-hu02 (antibody, V domains shown)
VH: B8 VH with I29F, M34L, D54E, G66N, D77N
VL: B1 VL with E1D, S56D, F71Y
notes: H6K3 with heavy chain I29F
B22: hS4B6-H6K3-hu01 (antibody, V domains shown)
VH: B8 VH with D27Y, M34L, D54E, G66N, D77N
VL: B1 VL with E1D, S56D, F71Y
notes: H6K3 with heavy chain D27Y
B23: hS4B6-H6K3-hu08 (antibody, V domains shown)
VH: B8 VH with M34L, D54E, G66N
VL: B1 VL with E1D, S56D, F71Y
notes: H6K3 with heavy chain N76D; also called H6K3-huis
B24: hS4B6-H6K3-hu03 (antibody, V domains shown)
VH: B8 VH with A31D, M34L, D54E, G66N, D77N
VL: B1 VL with E1D, S56D, F71Y
notes: H6K3 with heavy chain A31D
B25: hS4B6-H6K3-hu12 (antibody, V domains shown)
VH: B8 VH with M34L, D54E, G66N, D77N
VL: B1 VL with E1D, S56D
notes: H6K3 with light chain Y71F
B26: hS4B6-H6K3-hu04 (antibody, V domains shown)
VH: B8 VH with D54E, G66N, D77N
VL: B1 VL with E1D, S56D, F71Y
notes: H6K3 with heavy chain L34M
B27: hS4B6-H6K3-hu07 (antibody, V domains shown)
VH: B8 VH with M34L, D54E, D77N
VL: B1 VL with E1D, S56D, F71Y
notes: H6K3 with heavy chain N65G
B28: hS4B6-H6K3-hu09 (antibody, V domains shown)
VH: B8 VH with M34L, D54E, G66N, D77N
VL: B1 VL with E1D, F71Y
notes: H6K3 with light chain D56S
B29: hS4B6-H6K3-hu10 (antibody, V domains shown)
VH: B8 VH with M34L, D54E, G66N, D77N
VL: B1 VL with E1D, S56T, F71Y
notes: H6K3 with light chain D56T
B30: hS4B6-H6K3-hu06 (antibody, V domains shown)
VH: B8 VH with M34L, D54E, G66S, D77N
VL: B1 VL with E1D, S56D, F71Y
notes: H6K3 with heavy chain N65S
B31: hS4B6-H6K3-hu05 (antibody, V domains shown)
VH: B8 VH with M34L, I48M, D54E, G66N, D77N
VL: B1 VL with E1D, S56D, F71Y
notes: H6K3 with heavy chain I48M
B32: hS4B6-H6K3-hu11 (antibody, V domains shown)
VH: B8 VH with M34L, D54E, G66N, D77N
VL: B1 VL with E1D, S56D, R66G, F71Y
notes: H6K3 with light chain R66G

molecular target: T1, hIL2Rβ (hCD122); test: ELISA (method of section 2.1.1): sample captured on coated goat anti-human IgG, hCD122 titrated; the x axis is the CD122 concentration
Description: ELISA was performed as follows: a goat anti-human IgG (Jackson Immunoresearch) was diluted to 1 μg/mL in 1×PBS and added to an ELISA plate at 100 μL/well, and then incubated at 4° C. overnight. The plate was washed with PBS and then blocked at room temperature for 1 hour after adding the blocking solution (PBST containing 1% BSA) to each well. […] The plate was washed with PBST; the HRP-labeled anti-6×His-tag secondary antibody (Proteintech) diluted at a ratio of 1:10,000 in blocking solution was then added to each well and incubated at room temperature for 1 hour. The plate was washed with PBST; the TMB chromogenic solution (Thermo) was added to each well and incubated in dark for 3-10 minutes at room temperature. The stop solution (2 M HCl) was added to each well, and OD values at a wavelength of 450-570 nm were read using a multimode microplate reader (Varioskan, Thermo).

binding result | Binder
binds | B1
binds | B2
binds | B3
binds | B4
binds | B5
binds | B6
binds | B7

molecular target: T2, hIL2-DM-his (human, UniProt P60568 21-153); test: BLI ForteBio, Ab on Protein A sensor
T2 construct: expressed in ExpiCHO-S cells, nickel-column purified; also called hIL-2 mutein containing two point mutations K64G and N90R (with a his-tag); not shown: his-tag
Target sequence in this assay (P60568 21-153 K84G/N110R): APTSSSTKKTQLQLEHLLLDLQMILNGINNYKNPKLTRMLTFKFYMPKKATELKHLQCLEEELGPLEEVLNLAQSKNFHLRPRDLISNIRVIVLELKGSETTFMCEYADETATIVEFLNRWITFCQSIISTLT

Kd [nM] | koff [s⁻¹] | kon [M⁻¹ s⁻¹] | Binder
3.08 | 0.00108 | 351000 | B8
1.46 | 0.000585 | 402000 | B9
3.2 | 0.00127 | 396000 | B10
3.72 | 0.00143 | 384000 | B11
2.49 | 0.000856 | 344000 | B12
1.49 | 0.000529 | 356000 | B13
2.33 | 0.000994 | 426000 | B14
1.5 | 0.000446 | 297000 | B15
2.7 | 0.00113 | 418000 | B16
2.47 | 0.000907 | 367000 | B17
2.25 | 0.00082 | 364000 | B18
4.28 | 0.00151 | 352000 | B19
0.686 | 0.000326 | 476000 | B20

molecular target: T2, hIL2-DM-his; test: BLI ForteBio, Ab on Protein A sensor; remark: another data set of the same source
Description: After each cycle of association and dissociation steps, the sensor was regenerated by 10 mM glycine buffer (pH 1.5) and then stated with the next cycle of detection. After the detection, the association rate constant and dissociation rate constant between the antibody and antigen were fitted and extrapolated using the analytical software, and the value of affinity constant (KD) was calculated.

Binding Response (nm) | Kd [nM] | koff [s⁻¹] | kon [M⁻¹ s⁻¹] | Binder | binding result
– | – | – | – | B21 | no binding (tested: 100 nM (highest antigen concentration))
– | – | – | – | B22 | no binding (tested: 100 nM (highest antigen concentration))
0.127 | 58.1 | 0.0207 | 356000 | B23 | –
– | – | – | – | B24 | no binding (tested: 100 nM (highest antigen concentration))
0.152 | 32.3 | 0.0174 | 537000 | B25 | –
0.143 | 34.6 | 0.0149 | 430000 | B26 | –
0.13 | 45.3 | 0.0181 | 400000 | B27 | –
0.18 | 23.6 | 0.00867 | 367000 | B28 | –
0.172 | 28.3 | 0.0106 | 372000 | B29 | –
0.135 | 52.5 | 0.0192 | 365000 | B30 | –
0.139 | 39.4 | 0.0152 | 387000 | B31 | –
– | – | – | – | B32 | no binding (tested: 100 nM (highest antigen concentration))
